Patent EP1616575B1 (ZymoGenetics, Inc., dated 2012)

How the values were obtained:
IL-20RA = target: T1, IL-20RA (human, UniProt Q9UHF4 30-553); test: radiolabeled IL-20 binding to BHK cells stably transfected with IL-20RA alone
T1 construct: Expressed alone on stably transfected BHK cells; also called Zcytor7; IL-20RA receptor subunit alone
T1 sequence: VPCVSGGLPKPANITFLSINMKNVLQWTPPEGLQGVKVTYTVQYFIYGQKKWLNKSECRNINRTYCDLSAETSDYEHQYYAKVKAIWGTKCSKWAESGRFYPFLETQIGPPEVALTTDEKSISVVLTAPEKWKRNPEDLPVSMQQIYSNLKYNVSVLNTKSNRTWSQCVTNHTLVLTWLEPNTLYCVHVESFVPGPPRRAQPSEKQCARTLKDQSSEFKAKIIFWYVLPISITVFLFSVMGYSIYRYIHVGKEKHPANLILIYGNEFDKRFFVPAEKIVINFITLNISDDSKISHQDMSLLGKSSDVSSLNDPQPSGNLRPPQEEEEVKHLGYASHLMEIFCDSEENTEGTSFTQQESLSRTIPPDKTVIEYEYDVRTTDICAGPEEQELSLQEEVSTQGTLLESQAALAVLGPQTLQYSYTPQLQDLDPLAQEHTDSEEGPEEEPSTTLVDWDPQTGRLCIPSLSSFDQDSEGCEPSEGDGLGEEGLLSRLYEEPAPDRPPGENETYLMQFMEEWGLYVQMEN

IL-20RB = target: T2, IL-20RB (human, UniProt Q6UXL0 30-311); test: radiolabeled IL-20 binding to BHK cells stably transfected with IL-20RB alone
T2 construct: Expressed alone on stably transfected BHK cells; also called IL-20RB receptor subunit alone
T2 sequence: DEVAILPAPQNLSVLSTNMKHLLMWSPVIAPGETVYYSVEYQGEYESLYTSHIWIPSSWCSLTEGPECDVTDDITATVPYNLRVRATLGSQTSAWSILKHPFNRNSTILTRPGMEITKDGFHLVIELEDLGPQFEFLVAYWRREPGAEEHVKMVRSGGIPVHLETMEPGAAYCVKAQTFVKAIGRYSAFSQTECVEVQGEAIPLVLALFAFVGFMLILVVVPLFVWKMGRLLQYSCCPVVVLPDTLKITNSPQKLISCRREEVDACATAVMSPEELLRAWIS

[1] = target: T3, IL-20RA/IL-20RB heterodimeric receptor (human, UniProt Q9UHF4 30-553; Q6UXL0 30-311); test: 125I-IL-20 binding to BHK cells stably transfected with IL-20RA and IL-20RB
T3 construct: Both subunits co-expressed on cells: transfected COS, BHK and BaF3 cells, and endogenous on HaCaT keratinocytes; also called IL-20 receptor; IL-20RB-IL-20RA heterodimer
T3 sequence 1: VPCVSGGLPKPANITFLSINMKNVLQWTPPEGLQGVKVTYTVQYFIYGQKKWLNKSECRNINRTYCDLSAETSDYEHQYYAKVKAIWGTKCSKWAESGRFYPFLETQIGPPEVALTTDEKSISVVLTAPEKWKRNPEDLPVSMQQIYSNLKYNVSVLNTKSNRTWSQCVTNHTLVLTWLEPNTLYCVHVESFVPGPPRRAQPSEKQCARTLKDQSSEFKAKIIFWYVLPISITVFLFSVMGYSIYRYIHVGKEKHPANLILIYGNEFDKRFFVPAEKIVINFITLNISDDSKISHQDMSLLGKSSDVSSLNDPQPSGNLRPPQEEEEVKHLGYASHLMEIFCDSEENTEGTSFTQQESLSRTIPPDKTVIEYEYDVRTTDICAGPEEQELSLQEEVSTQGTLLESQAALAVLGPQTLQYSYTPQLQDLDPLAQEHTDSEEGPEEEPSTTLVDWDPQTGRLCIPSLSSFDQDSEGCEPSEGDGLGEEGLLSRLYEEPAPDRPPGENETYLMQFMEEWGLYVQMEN
T3 sequence 2: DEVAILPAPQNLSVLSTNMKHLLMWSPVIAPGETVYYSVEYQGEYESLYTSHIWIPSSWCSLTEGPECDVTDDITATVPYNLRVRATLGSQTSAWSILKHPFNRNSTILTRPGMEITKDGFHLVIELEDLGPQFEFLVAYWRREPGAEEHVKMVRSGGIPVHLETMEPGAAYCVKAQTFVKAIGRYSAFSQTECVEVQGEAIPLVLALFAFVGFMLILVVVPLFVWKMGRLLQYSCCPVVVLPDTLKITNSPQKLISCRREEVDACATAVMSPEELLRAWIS

- binding result (IL-20RA): no binding
- binding result (IL-20RB): no binding
- Kd [1]: ~1.5 nM
B1: IL-20 (ligand, UniProt Q9NYY1 25-176, looked up)
chain: LKTLNLGSCVIATNLQEIRNGFSEIRGSVQAKDGNIDIRILRRTESLQDTKPANRCCLLRHLLRLYLDRVFKNYQTPDHYTLRKISSLANSFLTIKKDLRLCHAHMTCHCGEEAMKKYSQILSHFEKLEPQAAVVKALGELDILLQWMEETE
notes: also called Zcyto10; biotin-labeled IL-20 protein
